This assay has as its target T1, wildtype PfEBA-175 RII expressed on the surface of HEK293T cells (Plasmodium falciparum, strain not …, UniProt Q8IBE8).
T1 construct: PfEBA-175 of P. falciparum, region II; The pRE4 vector supplies the signal and membrane anchor for surface display (surmise); also called wildtype RII; source: HEK293T, transfected (pRE4 vector), on the cell surface; not shown: GFP, C-terminal, kept
The assay can be described thus: immunostaining of cells or tissue; DBL proteins on the surface of transfected HEK293T cells, probed with 10 µg/ml R217 or R218, then Alexafluor-546 anti-mouse IgG1; fluorescence microscopy. Particulars: one partner purified.

B1: R217 IgG (antibody, V domains shown)
VH: VQLQQSGPELVKPGTSVKISCKTSGYTFTENTMHWVKQSHGESLDWVGGINTDNGGTTYSQKFKGKATLTVDKSSSTAYMELRSLTSEDSAVYYCSTGYDAMDYWGQGTSVTVSS
VL: NIVLTQSPASLAVSLGQRATISCRASKGVDSYGNSFMHWYQQRPGQPPKLLIYLASHLESGVPARFSGSGSRTDFTLTIDPVEADDAATYYCQQNNEDPFTFGSGTKLEIK
notes: mouse IgG1 heavy chain; its Fab part as the heavy chain of m3 (deposited structure); as the light chain of m3; IgG1 mouse monoclonal antibody; also called R217 antibody
In the case of B1, the binding result was “binds”.

B2: R218 IgG (antibody, V domains shown)
VH: EVQLQQSGAELVKPGASVKLSCTASGFNIKDNYMHWVKQRPEQGLEWIGRIDPANGNTKYDPKFQGKATITADTSSNTAYLQLSSLTSEDTAVYYCARHYDGYFLYYFEYWGQGTTLTVSS
VL: DIQMTQTTSSLSASLGDRVTITCRAGQDISNYLNWYQQKPDGTVKLLIYYTSRLHSGVPSRFSGSGSGTDYSLTISNLEQEDIATYFCQQGSTFPWTFGGGTKLEIK
notes: mouse IgG1 heavy chain; its Fab part as the heavy chain of m5 (deposited structure); as the light chain of m5; IgG1 mouse monoclonal antibody; also called R218 antibody
On to B2, for which the binding result was “binds”.

These data come from PMC3662668, “Structural and Functional Basis for Inhibition of Erythrocyte Invasion by Antibodies that Target Plasmodium falciparum EBA-175” (PLoS Pathogens, 2013).
